Results from publication PMC11079029, “Intramolecular autoinhibition regulates the selectivity of PRPF40A tandem WW domains for proline-rich motifs” (Nature Communications, 2024).

B1: DDX20 (protein, UniProt Q9UHI6 1-824, looked up)
Probable ATP-dependent RNA …: MAAAFEASGALAAVATAMPAEHVAVQVPAPEPTPGPVRILRTAQDLSSPRTRTGDVLLAEPADFESLLLSRPVLEGLRAAGFERPSPVQLKAIPLGRCGLDLIVQAKSGTGKTCVFSTIALDSLVLENLSTQILILAPTREIAVQIHSVITAIGIKMEGLECHVFIGGTPLSQDKTRLKKCHIAVGSPGRIKQLIELDYLNPGSIRLFILDEADKLLEEGSFQEQINWIYSSLPASKQMLAVSATYPEFLANALTKYMRDPTFVRLNSSDPSLIGLKQYYKVVNSYPLAHKVFEEKTQHLQELFSRIPFNQALVFSNLHSRAQHLADILSSKGFPAECISGNMNQNQRLDAMAKLKHFHCRVLISTDLTSRGIDAEKVNLVVNLDVPLDWETYMHRIGRAGRFGTLGLTVTYCCRGEEENMMMRIAQKCNINLLPLPDPIPSGLMEECVDWDVEVKAAVHTYGIASVPNQPLKKQIQKIERTLQIQKAHGDHMASSRNNSVSGLSVKSKNNTKQKLPVKSHSECGIIEKATSPKELGCDRQSEEQMKNSVQTPVENSTNSQHQVKEALPVSLPQIPCLSSFKIHQPYTLTFAELVEDYEHYIKEGLEKPVEIIRHYTGPGDQTVNPQNGFVRNKVIEQRVPVLASSSQSGDSESDSDSYSSRTSSQSKGNKSYLEGSSDNQLKDSESTPVDDRISLEQPPNGSDTPNPEKYQESPGIQMKTRLKEGASQRAKQSRRNLPRRSSFRLQTEAQEDDWYDCHREIRLSFSDTYQDYEEYWRAYYRAWQEYYAAASHSYYWNAQRHPSWMAAYHMNTIYLQEMMHSNQ
B2: ATXN10 (protein, UniProt Q9UBB4 1-475, looked up)
Ataxin-10: MAAPRPPPARLSGVMVPAPIQDLEALRALTALFKEQRNRETAPRTIFQRVLDILKKSSHAVELACRDPSQVENLASSLQLITECFRCLRNACIECSVNQNSIRNLDTIGVAVDLILLFRELRVEQESLLTAFRCGLQFLGNIASRNEDSQSIVWVHAFPELFLSCLNHPDKKIVAYSSMILFTSLNHERMKELEENLNIAIDVIDAYQKHPESEWPFLIITDLFLKSPELVQAMFPKLNNQERVTLLDLMIAKITSDEPLTKDDIPVFLRHAELIASTFVDQCKTVLKLASEEPPDDEEALATIRLLDVLCEMTVNTELLGYLQVFPGLLERVIDLLRVIHVAGKETTNIFSNCGCVRAEGDISNVANGFKSHLIRLIGNLCYKNKDNQDKVNELDGIPLILDNCNISDSNPFLTQWVIYAIRNLTEDNSQNQDLIAKMEEQGLADASLLKKVGFEVEKKGEKLILKSTRDTPKP
B3: SF3B1 (protein, UniProt O75533 1-1304, looked up)
Splicing factor 3B subunit 1: MAKIAKTHEDIEAQIREIQGKKAALDEAQGVGLDSTGYYDQEIYGGSDSRFAGYVTSIAATELEDDDDDYSSSTSLLGQKKPGYHAPVALLNDIPQSTEQYDPFAEHRPPKIADREDEYKKHRRTMIISPERLDPFADGGKTPDPKMNARTYMDVMREQHLTKEEREIRQQLAEKAKAGELKVVNGAAASQPPSKRKRRWDQTADQTPGATPKKLSSWDQAETPGHTPSLRWDETPGRAKGSETPGATPGSKIWDPTPSHTPAGAATPGRGDTPGHATPGHGGATSSARKNRWDETPKTERDTPGHGSGWAETPRTDRGGDSIGETPTPGASKRKSRWDETPASQMGGSTPVLTPGKTPIGTPAMNMATPTPGHIMSMTPEQLQAWRWEREIDERNRPLSDEELDAMFPEGYKVLPPPAGYVPIRTPARKLTATPTPLGGMTGFHMQTEDRTMKSVNDQPSGNLPFLKPDDIQYFDKLLVDVDESTLSPEEQKERKIMKLLLKIKNGTPPMRKAALRQITDKAREFGAGPLFNQILPLLMSPTLEDQERHLLVKVIDRILYKLDDLVRPYVHKILVVIEPLLIDEDYYARVEGREIISNLAKAAGLATMISTMRPDIDNMDEYVRNTTARAFAVVASALGIPSLLPFLKAVCKSKKSWQARHTGIKIVQQIAILMGCAILPHLRSLVEIIEHGLVDEQQKVRTISALAIAALAEAATPYGIESFDSVLKPLWKGIRQHRGKGLAAFLKAIGYLIPLMDAEYANYYTREVMLILIREFQSPDEEMKKIVLKVVKQCCGTDGVEANYIKTEILPPFFKHFWQHRMALDRRNYRQLVDTTVELANKVGAAEIISRIVDDLKDEAEQYRKMVMETIEKIMGNLGAADIDHKLEEQLIDGILYAFQEQTTEDSVMLNGFGTVVNALGKRVKPYLPQICGTVLWRLNNKSAKVRQQAADLISRTAVVMKTCQEEKLMGHLGVVLYEYLGEEYPEVLGSILGALKAIVNVIGMHKMTPPIKDLLPRLTPILKNRHEKVQENCIDLVGRIADRGAEYVSAREWMRICFELLELLKAHKKAIRRATVNTFGYIAKAIGPHDVLATLLNNLKVQERQNRVCTTVAIAIVAETCSPFTVLPALMNEYRVPELNVQNGVLKSLSFLFEYIGEMGKDYIYAVTPLLEDALMDRDLVHRQTASAVVQHMSLGVYGFGCEDSLNHLLNYVWPNVFETSPHVIQAVMGALEGLRVAIGPCRMLQYCLQGLFHPARKVRDVYWKIYNSIYIGSQDALIAHYPRIYNDDKNTYIRYELDYIL
B4: HNRNPUL1 (protein, UniProt Q9BUJ2 1-856, looked up)
Heterogeneous nuclear …: MDVRRLKVNELREELQRRGLDTRGLKAELAERLQAALEAEEPDDERELDADDEPGRPGHINEEVETEGGSELEGTAQPPPPGLQPHAEPGGYSGPDGHYAMDNITRQNQFYDTQVIKQENESGYERRPLEMEQQQAYRPEMKTEMKQGAPTSFLPPEASQLKPDRQQFQSRKRPYEENRGRGYFEHREDRRGRSPQPPAEEDEDDFDDTLVAIDTYNCDLHFKVARDRSSGYPLTIEGFAYLWSGARASYGVRRGRVCFEMKINEEISVKHLPSTEPDPHVVRIGWSLDSCSTQLGEEPFSYGYGGTGKKSTNSRFENYGDKFAENDVIGCFADFECGNDVELSFTKNGKWMGIAFRIQKEALGGQALYPHVLVKNCAVEFNFGQRAEPYCSVLPGFTFIQHLPLSERIRGTVGPKSKAECEILMMVGLPAAGKTTWAIKHAASNPSKKYNILGTNAIMDKMRVMGLRRQRNYAGRWDVLIQQATQCLNRLIQIAARKKRNYILDQTNVYGSAQRRKMRPFEGFQRKAIVICPTDEDLKDRTIKRTDEEGKDVPDHAVLEMKANFTLPDVGDFLDEVLFIELQREEADKLVRQYNEEGRKAGPPPEKRFDNRGGGGFRGRGGGGGFQRYENRGPPGGNRGGFQNRGGGSGGGGNYRGGFNRSGGGGYSQNRWGNNNRDNNNSNNRGSYNRAPQQQPPPQQPPPPQPPPQQPPPPPSYSPARNPPGASTYNKNSNIPGSSANTSTPTVSSYSPPQPSYSQPPYNQGGYSQGYTAPPPPPPPPPAYNYGSYGGYNPAPYTPPPPPTAQTYPQPSYNQYQQYAQQWNQYYQNQGQWPPYYGNYDYGSYSGNTQGGTSTQ
B5: MEPCE (protein, UniProt Q7L2J0 1-689, looked up)
7SK snRNA methylphosphate …: MIEMAAEKEPFLVPAPPPPLKDESGGGGGPTVPPHQEAASGELRGGTERGPGRCAPSAGSPAAAVGRESPGAAATSSSGPQAQQHRGGGPQAQSHGEARLSDPPGRAAPPDVGEERRGGGGTELGPPAPPRPRNGYQPHRPPGGGGGKRRNSCNVGGGGGGFKHPAFKRRRRVNSDCDSVLPSNFLLGGNIFDPLNLNSLLDEEVSRTLNAETPKSSPLPAKGRDPVEILIPKDITDPLSLNTCTDEGHVVLASPLKTGRKRHRHRGQHHQQQQAAGGSESHPVPPTAPLTPLLHGEGASQQPRHRGQNRDAPQPYELNTAINCRDEVVSPLPSALQGPSGSLSAPPAASVISAPPSSSSRHRKRRRTSSKSEAGARGGGQGSKEKGRGSWGGRHHHHHPLPAAGFKKQQRKFQYGNYCKYYGYRNPSCEDGRLRVLKPEWFRGRDVLDLGCNVGHLTLSIACKWGPSRMVGLDIDSRLIHSARQNIRHYLSEELRLPPQTLEGDPGAEGEEGTTTVRKRSCFPASLTASRGPIAAPQVPLDGADTSVFPNNVVFVTGNYVLDRDDLVEAQTPEYDVVLCLSLTKWVHLNWGDEGLKRMFRRIYRHLRPGGILVLEPQPWSSYGKRKTLTETIYKNYYRIQLKPEQFSSYLTSPDVGFSSYELVATPHNTSKGFQRPVYLFHKARSPSH

tested on: GFP-tagged PRPF40A-Nter-MUT; test: SILAC GFP-immunoprecipitation with quantitative mass spectrometry, mutant construct; type: binding, human (Hela cells); conditions: quantitative MS, Hela cells, protein by gene name
Description: The PRPF40A N-terminal region (isoform 2, residues 1-221) was PCR-amplified from RPE1 cDNA (ATCC, Cat# CRL-4000) cDNA. The sequence was amplified in two fragments and both fragments were combined by overhang. All PCRs were carried out using Q5 Polymerase (NEB) according to manufacturer’s protocol. The resulting PRPF40A N-terminal region was cloned into a GFP-expressing pcDNA5 vector (see pcDNA5 GFP vector in ref. [28]) using Q5 Site-Directed Mutagenesis Kit (NEB). Nter-MUT, containing the PPVP/PALPP motifs changed to AAAA/AAAAA, was obtained by mutating the N-ter-WW12-containing plasmid with Q5 site-directed mutagenesis. Plasmids were transformed into DH5alpha chemically competent cells. After culturing, DNA isolation was performed with either ZymoPURE Plasmid Miniprep Kit (Zymo Research) or QIAGEN Plasmid Plus Midi Kit (Qiagen). The sequence was confirmed by Sanger Sequencing (GATC Eurofins). All used oligonucleotides are shown in Supplementary Table 6.
Hela cells (ATCC, Cat# CCL-2, RRID:CVCL_0030) were cultured in DMEM SILAC medium (Thermo Fisher) supplemented with 10% filtered FBS (Sigma-Aldrich) and 1% penicillin-streptomycin (Thermo-Fisher). The SILAC medium contains either light (Arg0, Lys0), medium (Arg6, Lys4) or heavy (Arg10, Lys8) isotopes (Cambridge Isotopes Laboratories). Hela cells were cultivated for 14 days in SILAC medium to assure sufficient isotope incorporation. For transfection, 7 × 10^6 Hela cells were seeded in a 15 cm culture dish in 20 ml of respective SILAC medium and grown for 24 h. The cells were then transfected with 20 µg of plasmids expressing either GFP (Control), GFP-tagged N-ext-WW12 or GFP-tagged-N-ext-WW12-MUT utilizing 64 µl FuGENE (Promega) (ratio 1:3.2), according to manufacturer’s protocol.
24 h post-transfection, cells were washed twice in ice-cold PBS and harvested in 1 ml mRIPA buffer (50 mM Tris, 150 mM NaCl, 1 mM EDTA, 1% NP-40, 0.1% Na-deoxycholate), supplemented with 2 µl Turbo-DNase (Thermo Fisher) and 3 µl protease-inhibitor cocktail cOmplete (Sigma-Aldrich). Cell lysates were cleared by centrifugation at 16,000 × g, 4 °C, 15 min and concentration was measured using Pierce BCA Protein Assay kit (Thermo Scientific). The expressed constructs were pulled down by incubating 2.5 mg of lysate with 20 μl GFP-nanobody agarose beads (ChromoTek, GTA-20) for 1 h at 4 °C under constant agitation. Subsequently, beads were washed three times with mRIPA buffer without supplements, then eluted in 1X NuPAGE LDS sample buffer (Thermo Scientific). To detach the proteins from the beads, the eluate was heated to 70 °C for 10 min To evaluate the success of the immunoprecipitation, input (1%) and IP samples were analyzed on a NuPAGE 4–12% Bis-Tris-Acrylamide gel (Thermo Fisher) using NuPAGE MOPS SDS running buffer (Thermo Fisher). Proteins were stained using Sypro Ruby protein gel stain (Thermo Fisher) according to manufacturer’s protocol.
The eluted proteins of three SILAC states (light, medium, heavy) were combined. The proteins were then reduced in DTT, alkylated in iodoacetamide, and purified using the SP3 paramagnetic bead approach. This was followed by overnight enzymatic digestion using trypsin (1 µg per sample) in 50 mM ammonium bicarbonate at 37 °C. The peptide solution was then purified by solid phase extraction in C18 StageTips[99].
Peptides were separated by online reverse phase liquid chromatography using the EASY-nLC 1000 system (Thermo Scientific) in a 30-cm analytical column (inner diameter: 75 μm; heated at 50 °C) packed in-house with ReproSil-Pur 120 C18-AQ 1.9-μm beads (Dr. Maisch GmbH). The gradient separation was performed through a 105-min non-linear gradient of 1.6–32% acetonitrile with 0.1% formic acid at a nanoflow rate of 225 nl/min. The eluted peptides were sprayed directly by electrospray ionization into a Q Exactive Plus Orbitrap mass spectrometer (Thermo Scientific). […]

Row | Molecule | Immunoprecipitation enrichment MUT vs WT, log2 FC
1 | B1 | 1.113
2 | B2 | 1.57
3 | B3 | 0.9931
4 | B4 | 1.072
5 | B5 | 1.321
